Measured values taken from patent US20130108602A1, “METHODS AND USES OF NUR77 AND NUR77 AGONISTS TO MODULATE MACROPHAGES AND MONOCYTES, AND TREAT INFLAMMATION, INFLAMMATORY DISEASE AND CARDIOVASCULAR DISEASE” (LA JOLLA INSTITUTE FOR ALLERGY AND IMMUNOLOGY, priority 2010, published 2013).

Experiments:
[1] = system: Nur77 mRNA; assay: Nur77 (NR4A1) mRNA by real-time RT-PCR in human monocyte-derived macrophages; type: cell-based
[2] = system: Nur77 protein; assay: Nur77 protein staining in primary human monocyte-derived macrophages; type: cell-based; details: at 24 hours, Gal-3BP 10 μg/ml

B1: Gal-3BP: recombinant human galectin-3 binding protein (R&D) (protein, UniProt Q08380 19-585, looked up)
Galectin-3-binding protein: VNDGDMRLADGGATNQGRVEIFYRGQWGTVCDNLWDLTDASVVCRALGFENATQALGRAAFGQGSGPIMLDEVQCTGTEASLADCKSLGWLKSNCRHERDAGVVCTNETRSTHTLDLSRELSEALGQIFDSQRGCDLSISVNVQGEDALGFCGHTVILTANLEAQALWKEPGSNVTMSVDAECVPMVRDLLRYFYSRRIDITLSSVKCFHKLASAYGARQLQGYCASLFAILLPQDPSFQMPLDLYAYAVATGDALLEKLCLQFLAWNFEALTQAEAWPSVPTDLLQLLLPRSDLAVPSELALLKAVDTWSWGERASHEEVEGLVEKIRFPMMLPEELFELQFNLSLYWSHEALFQKKTLQALEFHTVPFQLLARYKGLNLTEDTYKPRIYTSPTWSAFVTDSSWSARKSQLVYQSRRGPLVKYSSDYFQAPSDYRYYPYQSFQTPQHPSFLFQDKRVSWSLVYLPTIQSCWNYGFSCSSDELPVLGLTKSGGSDRTIAYENKALMLCEGLFVADVTDFEGWKAAIPSALDTNSSKSTSSFPCPAGHFNGFRTVIRPFYLTNSSGVD
For B1, the “time of peak Nur77 mRNA expression after addition” value ([1]; M-CSF-derived human macrophages (M0), Gal-3BP 10 μg/ml) was 48 h, the “NUR77 mRNA increase” value ([1]; M-CSF-derived human macrophages (M0), Gal-3BP 10 μg/ml, 0-72 hours, two independent studies) was 3-4 fold and the NR4A1 expression induction ([1]; human primary macrophages, 6 hours after Gal-3BP, normalized to t=0, n=3) was “more than 6 fold”. The “Nur77 protein compared to control” value [2] was “massively increased”.
